According to paper PMC8304084, “A Concerted Action of UBA5 C-Terminal Unstructured Regions Is Important for Transfer of Activated UFM1 to UFC1” (International Journal of Molecular Sciences, 2021):

How the values were obtained:
Type in all cases: binding
GABARAP = target: T1, GABARAP (Homo sapiens, UniProt O95166); test: ITC, UBA5 peptides vs GABARAP; conditions: 25 °C
T1 construct: modified ubiquitin tag (Ub19) with TEV site (N, cleaved yes); made in house; host or cells: E. coli T7 Express
Excerpt: (§1) To understand how the UBA5 C-terminus participates in the ufmylation cascade, we performed isothermal titration calorimetry (ITC) experiments, in which we titrated UBA5 C-terminal peptides (see Table 1) to the UBA5 AD, UFC1, UFM1 and representative LC3/GABARAP proteins (Figure 2A, Supplementary Figure S2A–D and Table 2).
(§2) All proteins and peptides were expressed in E.Coli T7 Express (New England Biolabs GmbH, Frankfurt, Germany) cells in LB or M9 (to obtain ^15N- and ^13C,^15N-labeled polypeptides) media according to the protocol described in [33, 36]. For protein purification, bacterial cell pellets were resuspended in lysis buffer (50 mM Tris-HCl pH = 7.5, 100 mM NaCl, 5% glycerol, 5 mM PIC (protease inhibitor cocktail)) and lysed via sonication (TT13 Sonotrode, 40% amplitude, for 6 × 1 min with a 0.5/0.5-s pulse). Lysates were centrifuged for 45 min at 17,000× g at 4 °C. Supernatants were loaded onto a His Trap Fast Flow 5 mL column (GE Healthcare, München, Germany) equilibrated in loading buffer (50 mM Tris-HCl pH = 8.0, 250 mM NaCl, 1% glycerol, 20 mM imidazole). The column was washed with loading buffer for 5–10 CV and protein was eluted with elution buffer (50 mM Tris-HCl pH = 8, 250 mM NaCl, 1% glycerol, 400 mM imidazole). Simultaneous TEV cleavage (1 mg TEV protease was added to 100 mg peptides/proteins) and buffer exchange to loading buffer via dialysis was performed over night at 4 °C. After reverse IMAC, proteins were concentrated with conical concentrators (Millipore Merck, Darmstadt, Germany) and loaded on a Superdex 10/60 75 or 200 column (GE Healthcare, München, Germany) for further purification and equilibration with ITC/NMR buffer (25 mM HEPES pH = 7.5, 100 mM NaCl). […] The protein and peptide concentrations were calculated from the UV absorption at 280 nm by Nanodrop spectrophotometer (Thermo Scientific, Langenselbold, Germany).
(§3) All ITC experiments were performed at 25 °C using a VP-ITC microcalorimeter (Malvern Panalytical Ltd., Malvern, UK). […] The ITC data were analyzed based on a “one-site” binding model with MicroCal ITC software implemented in Origin 7.0.

LC3B = target: T2, LC3B (Homo sapiens, UniProt Q9GZQ8); test: ITC, UBA5 peptides vs LC3B; conditions: 25 °C, vs LC3B
T2 construct: LC3B, residues 5–120; ubiquitin tag Ub3 (vector pETm60_Ub3) (cleaved yes); made in house; host or cells: E. coli T7 Express
Excerpt: as §1
All proteins and peptides were expressed in E.Coli T7 Express (New England Biolabs GmbH, Frankfurt, Germany) cells in LB or M9 (to obtain ^15N- and ^13C,^15N-labeled polypeptides) media according to the protocol described in [33, 36]. For protein purification, bacterial cell pellets were resuspended in lysis buffer (50 mM Tris-HCl pH = 7.5, 100 mM NaCl, 5% glycerol, 5 mM PIC (protease inhibitor cocktail)) and lysed via sonication (TT13 Sonotrode, 40% amplitude, for 6 × 1 min with a 0.5/0.5-s pulse). Lysates were centrifuged for 45 min at 17,000× g at 4 °C. Supernatants were loaded onto a His Trap Fast Flow 5 mL column (GE Healthcare, München, Germany) equilibrated in loading buffer (50 mM Tris-HCl pH = 8.0, 250 mM NaCl, 1% glycerol, 20 mM imidazole). The column was washed with loading buffer for 5–10 CV and protein was eluted with elution buffer (50 mM Tris-HCl pH = 8, 250 mM NaCl, 1% glycerol, 400 mM imidazole). Simultaneous TEV cleavage (1 mg TEV protease was added to 100 mg peptides/proteins) and buffer exchange to loading buffer via dialysis was performed over night at 4 °C. After reverse IMAC, proteins were concentrated with conical concentrators (Millipore Merck, Darmstadt, Germany) and loaded on a Superdex 10/60 75 or 200 column (GE Healthcare, München, Germany) for further purification and equilibration with ITC/NMR buffer (25 mM HEPES pH = 7.5, 100 mM NaCl). For structural NMR spectroscopy, buffer containing 50 mM Tris-HCl pH = 7.5, 100 mM NaCl was used. Prior to NMR experiments, TCEP and protease inhibitors cocktail were added to the samples to final concentrations 1 and 5 mM, respectively. Purified peptides and protein were concentrated and stored at −80 °C. The protein and peptide concentrations were calculated from the UV absorption at 280 nm by Nanodrop spectrophotometer (Thermo Scientific, Langenselbold, Germany).
(§4) All ITC experiments were performed at 25 °C using a VP-ITC microcalorimeter (Malvern Panalytical Ltd., Malvern, UK). Peptides in concentration of ~400 µM were titrated into 20–25 µM solutions of corresponding binding partner at a stirring speed of 307 rpm. The raw data were corrected on the dilution heat of peptides obtained in independent experiment (titration of the peptide in syringe into the ITC/NMR buffer in the measuring cell). Pre-titration delay was set to 180 s, interval between titration steps was experimentally adjusted to avoid kinetic contribution to the observed heat effects and set to 200 s. A single ITC profile was collected for each type of interaction. The ITC data were analyzed based on a “one-site” binding model with MicroCal ITC software implemented in Origin 7.0.

LC3A = target: T3, LC3A (Homo sapiens, UniProt Q9H492); test: ITC, UBA5 peptides vs LC3A; conditions: 25 °C
T3 construct: LC3A, residues 4–120; ubiquitin tag Ub3 (vector pETm60_Ub3) (cleaved yes); made in house; host or cells: E. coli T7 Express
T3 sequence (Q9H492 4-120): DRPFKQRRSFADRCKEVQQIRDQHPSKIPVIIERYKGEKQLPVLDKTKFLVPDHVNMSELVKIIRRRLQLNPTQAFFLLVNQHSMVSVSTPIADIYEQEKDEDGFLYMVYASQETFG
Excerpt: as §1, §2, §3

UBA5 AD^1–330 = test: ITC, UBA5 C-terminus vs UBA5 AD; conditions: 25 °C, R1-R2-R3^325–404 titrated into AD^1–330 solution
Excerpt: as §1
All proteins and peptides were expressed in E.Coli T7 Express (New England Biolabs GmbH, Frankfurt, Germany) cells in LB or M9 (to obtain ^15N- and ^13C,^15N-labeled polypeptides) media according to the protocol described in [33, 36]. For protein purification, bacterial cell pellets were resuspended in lysis buffer (50 mM Tris-HCl pH = 7.5, 100 mM NaCl, 5% glycerol, 5 mM PIC (protease inhibitor cocktail)) and lysed via sonication (TT13 Sonotrode, 40% amplitude, for 6 × 1 min with a 0.5/0.5-s pulse). Lysates were centrifuged for 45 min at 17,000× g at 4 °C. […] The protein and peptide concentrations were calculated from the UV absorption at 280 nm by Nanodrop spectrophotometer (Thermo Scientific, Langenselbold, Germany).
All ITC experiments were performed at 25 °C using a VP-ITC microcalorimeter (Malvern Panalytical Ltd., Malvern, UK). […] The ITC data were analyzed based on a “one-site” binding model with MicroCal ITC software implemented in Origin 7.0. […]

Ub = test: Interaction of ubiquitin with UBA5 C-terminal region
Protocol: as §4

UFC1 = target: T4, UFC1 (Homo sapiens, UniProt Q9Y3C8); test: NMR titration with UFC1; conditions: [15N,1H] TROSY-HSQC, 25 °C
T4 construct: Full length UFC1, residues 1–167; modified ubiquitin tag (Ub19) with TEV site (N, cleaved yes); made in house; host or cells: E. coli T7 Express
T4 sequence (Q9Y3C8 1-167): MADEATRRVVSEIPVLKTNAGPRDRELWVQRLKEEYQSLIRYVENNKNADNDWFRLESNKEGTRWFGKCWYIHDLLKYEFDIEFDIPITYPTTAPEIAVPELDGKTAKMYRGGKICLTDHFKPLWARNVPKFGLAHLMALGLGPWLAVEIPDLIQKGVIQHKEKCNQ
Protocol: To understand the role of the UBA5 C-terminal region in coordination of the binding events reported above on the molecular level, we performed NMR titration experiments. […] It seems, that these UBA5 residues form additional interactions with UFC1.
All NMR experiments were performed at a sample temperature of 25 °C on Bruker 600, 700, 800, 900, and 950 MHz spectrometers equipped with cryogenic probes, and a 500 MHz spectrometer equipped with a room-temperature triple-resonance probe. All NMR spectra were analyzed with the Sparky 3.114 software (University of California, San Francisco, USA). For NMR titration experiments, the non-labeled UBA5 peptides were titrated to 100 µM ^13C,^15N-labeled UFC1 to a final molar ratio of 1:8 (UFC1:UBA5 peptide). Conversely, 100 µM ^13C,^15N-labeled UBA5 peptides were titrated with non-labeled UFC1 to a final molar ratio 1:4 (UBA5 peptide:UFC1). 2D ^1H-^15N correlation spectra ([^15N,^1H] TROSY-HSQC) were recorded at each titration point. The same types of spectra were recorded to estimate binding of ^13C,^15N-labeled UFC1 (75 µM) to non-labeled UBA5, UBA5~UFM1 and UFM1 at 1:2 molar ratios. CSP values, Δδ, were calculated for each individual amide group using the formula Δδ = [(ΔδN/5)^2 + Δδ^2HN)]^1/2.

GABARAPL2 = target: T5, GABARAPL2 (Homo sapiens, UniProt P60520); test: NMR titration with GABARAPL2; conditions: NMR titration of 15N-labeled R1-R2-R3^325–404 with GABARAPL2, 25 °C
T5 construct: modified ubiquitin tag (Ub19) with TEV site (N, cleaved yes); made in house; host or cells: E. coli T7 Express
T5 sequence (P60520 3-116): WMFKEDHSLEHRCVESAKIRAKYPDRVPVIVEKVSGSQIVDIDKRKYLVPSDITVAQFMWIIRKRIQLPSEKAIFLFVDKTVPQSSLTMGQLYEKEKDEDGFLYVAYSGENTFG

[1] = value is KA × 10^−6, ± = fitting error

T1 sequence (O95166 3-116): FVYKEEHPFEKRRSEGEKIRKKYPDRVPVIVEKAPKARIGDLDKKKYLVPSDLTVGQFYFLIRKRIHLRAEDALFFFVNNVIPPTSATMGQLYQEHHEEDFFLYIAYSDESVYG

## R1-R2-R3^325–404: UBA5 C-terminal part, residues 325–404 (recombinant, E. coli)
GABARAP
  ΔG: -8.15 kcal/mol
  ΔS: 24.2 cal mol^−1 K^−1
  −T*ΔS: -7.22 kcal/mol
LC3B
  ΔG: -7.33 kcal/mol
  ΔS: 8.86 cal mol^−1 K^−1
  −T*ΔS: -2.64 kcal/mol
LC3B; [1]
  KA*10^−6: 0.24 ± 0.09 M^−1
LC3A
  ΔG: -7.38 kcal/mol
  −T*ΔS: -3.13 kcal/mol
LC3A; [1]
  KA*10^−6: 0.26 ± 0.03 M^−1
UBA5 AD^1–330
  interaction with UBA5 AD: does not interact with the UBA5 AD
UBA5 AD^1–330; listed as R1‐R2‐R3325–404
  interaction with UBA5 AD: No interactions
Ub
  interaction with ubiquitin: no interaction
UFC1
  interaction with UFC1 (in words): mediated mostly by the UBA5 residues 386–404
GABARAPL2
  interaction with GABARAPL2 (in words): GABARAPL2 binds first to the LIR/UFIM region, and after saturation of this binding site, GABARAPL2 interacts with additional sites within the UBA5 C-terminus
